Experimental data reported in PMC4338599.

Molecular target: Ku70-Ku80 heterodimer (Ku);PAXX WT (PAXX1-204, C9orf142) (human?;human, UniProt P12956;P13010;Q9BUH6 1-609;1-732;1-204, |)
Assay: EMSA

Sequence of Ku70-Ku80 heterodimer (Ku);PAXX WT (PAXX1-204, C9orf142) (P12956 whole entry, chain 1 of 3): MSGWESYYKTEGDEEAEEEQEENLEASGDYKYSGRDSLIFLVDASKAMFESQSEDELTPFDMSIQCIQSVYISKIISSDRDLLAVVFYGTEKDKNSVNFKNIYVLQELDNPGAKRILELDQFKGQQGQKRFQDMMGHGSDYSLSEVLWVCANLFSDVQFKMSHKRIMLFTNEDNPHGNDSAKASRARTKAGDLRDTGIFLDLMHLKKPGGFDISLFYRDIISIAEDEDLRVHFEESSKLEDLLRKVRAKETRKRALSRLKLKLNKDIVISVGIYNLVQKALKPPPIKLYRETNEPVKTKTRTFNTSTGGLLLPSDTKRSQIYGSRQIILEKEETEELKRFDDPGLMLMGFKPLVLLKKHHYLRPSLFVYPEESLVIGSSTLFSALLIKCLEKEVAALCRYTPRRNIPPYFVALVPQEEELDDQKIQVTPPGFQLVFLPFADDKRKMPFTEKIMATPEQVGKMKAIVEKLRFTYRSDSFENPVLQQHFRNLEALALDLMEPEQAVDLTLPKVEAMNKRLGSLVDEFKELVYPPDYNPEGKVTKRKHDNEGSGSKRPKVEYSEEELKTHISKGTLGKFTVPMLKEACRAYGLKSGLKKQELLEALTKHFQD
Sequence of Ku70-Ku80 heterodimer (Ku);PAXX WT (PAXX1-204, C9orf142) (P13010 whole entry, chain 2 of 3): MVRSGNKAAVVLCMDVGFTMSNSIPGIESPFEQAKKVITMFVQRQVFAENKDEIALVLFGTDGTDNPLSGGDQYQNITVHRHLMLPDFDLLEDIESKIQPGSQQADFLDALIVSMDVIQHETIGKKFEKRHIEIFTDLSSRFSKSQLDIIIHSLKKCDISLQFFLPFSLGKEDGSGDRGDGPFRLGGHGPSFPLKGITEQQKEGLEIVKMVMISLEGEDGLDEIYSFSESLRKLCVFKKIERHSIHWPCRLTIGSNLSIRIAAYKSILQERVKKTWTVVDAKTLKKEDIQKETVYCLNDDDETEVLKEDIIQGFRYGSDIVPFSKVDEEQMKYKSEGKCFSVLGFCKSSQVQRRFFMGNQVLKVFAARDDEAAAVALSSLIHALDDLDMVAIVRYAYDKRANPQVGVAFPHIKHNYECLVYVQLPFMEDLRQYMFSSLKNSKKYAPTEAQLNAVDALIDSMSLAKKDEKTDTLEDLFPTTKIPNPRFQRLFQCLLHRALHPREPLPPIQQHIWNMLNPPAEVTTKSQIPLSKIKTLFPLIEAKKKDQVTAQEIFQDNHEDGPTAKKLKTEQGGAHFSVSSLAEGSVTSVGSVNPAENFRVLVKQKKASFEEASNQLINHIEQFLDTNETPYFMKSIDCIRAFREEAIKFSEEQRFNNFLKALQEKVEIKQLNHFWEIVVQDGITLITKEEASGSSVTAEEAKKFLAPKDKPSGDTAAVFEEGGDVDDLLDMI
Sequence of Ku70-Ku80 heterodimer (Ku);PAXX WT (PAXX1-204, C9orf142) (Q9BUH6 whole entry, chain 3 of 3): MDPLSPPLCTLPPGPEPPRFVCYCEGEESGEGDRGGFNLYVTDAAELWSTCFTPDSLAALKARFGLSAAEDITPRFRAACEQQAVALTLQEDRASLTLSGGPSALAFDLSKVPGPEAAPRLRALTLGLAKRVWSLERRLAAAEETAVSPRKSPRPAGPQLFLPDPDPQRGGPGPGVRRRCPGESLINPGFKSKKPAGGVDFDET

B1: 50-bp 6-FAM dsDNA (dsDNA)
DNA 1: TAAATGCCAATGCTGCTGATACGTACTCGGACTGATTCGGAACTGTAACG
DNA 2: CGTTACAGTTCCGAATCAGTCCGAGTACGTATCAGCAGCATTGGCATTTA
  binding result: binds
